# Test results reported in patent US20160237162A1.
# Experiments:
# [1] = molecular target: human HER3 on human cancer cells (human) (UniProt P21860)
# [2] = molecular target: human HER3 on human cancer cells (human) (UniProt P21860); remark: listed apart in the source
# [3] = molecular target: human HER3 on human cancer cells (human) (UniProt P21860); remark: listed apart in the source
# [4] = molecular target: human HER3 on human cancer cells (human) (UniProt P21860); remark: listed apart in the source
# [5] = molecular target: human HER3 on human cancer cells (human) (UniProt P21860); remark: listed apart in the source
# [6] = molecular target: human HER3 on human cancer cells (human) (UniProt P21860); remark: listed apart in the source
# [7] = molecular target: human HER3 on human cancer cells (human) (UniProt P21860); remark: listed apart in the source
# [8] = molecular target: human HER3 on human cancer cells (human) (UniProt P21860); remark: listed apart in the source
# [9] = molecular target: human HER3 on human cancer cells (human) (UniProt P21860); remark: listed apart in the source
# [10] = molecular target: human HER3 on human cancer cells (human) (UniProt P21860); remark: listed apart in the source
# [11] = molecular target: human HER3 on human cancer cells (human) (UniProt P21860); remark: listed apart in the source
# [12] = molecular target: human HER3 on human cancer cells (human) (UniProt P21860); experiment: cell-based or functional assay
substance,measurement,setting,value
AMG anti-HER3 monoclonal antibody (U1-59),"IC50; suppression of HRG-induced pHER3 (pHER3 ELISA), MCF-7 cells",[1],33 ng/ml
same,"Maximum inhibition %; suppression of HRG-induced pHER3 (pHER3 ELISA), MCF-7 cells",[1],77%
same,"IC50; growth suppression (CellTiter-Glo, 6 days), MDA-MB-175 cells",[2],0.99 µg/mL
same,"Maximum inhibition %; growth suppression (CellTiter-Glo, 6 days), MDA-MB-175 cells",[2],39%
same,"IC50; growth suppression (CellTiter-Glo, 6 days), HMCB melanoma cells",[3],1.73 µg/mL
same,"IC50; suppression of pHER3 (pHER3 ELISA), HCC827 cells",[4],23 ng/ml
same,"Maximum inhibition %; suppression of pHER3 (pHER3 ELISA), HCC827 cells",[4],41%
same,"IC50; suppression of pHER3 (pHER3 ELISA), EGFR-TKI (gefitinib)-resistant HCC827 cells",[5],31 ng/ml
same,"Maximum inhibition %; suppression of pHER3 (pHER3 ELISA), EGFR-TKI (gefitinib)-resistant HCC827 cells",[5],24%
same,"IC50; suppression of pHER3 (pHER3 ELISA), MKN45 cells",[6],16.1 ng/ml
same,"Maximum inhibition %; suppression of pHER3 (pHER3 ELISA), MKN45 cells",[6],58%
same,"IC50; suppression of pHER3 (pHER3 ELISA), Kato III cells",[7],9.6 ng/ml
same,"Maximum inhibition %; suppression of pHER3 (pHER3 ELISA), Kato III cells",[7],62%
same,"IC50; suppression of pHER3 (pHER3 ELISA), BT-474 cells",[8],> 10 µg/ml
same,"IC50; suppression of pAKT (Meso-Scale Discovery assay), MKN45 cells",[9],15.8 ng/ml
same,"Maximum inhibition %; suppression of pAKT (Meso-Scale Discovery assay), MKN45 cells",[9],38%
same,"IC50; suppression of pAKT (Meso-Scale Discovery assay), Kato III cells",[10],6.2 ng/ml
same,"Maximum inhibition %; suppression of pAKT (Meso-Scale Discovery assay), Kato III cells",[10],22%
same,"IC50; suppression of pAKT (Meso-Scale Discovery assay), BT-474 cells",[11],> 10 µg/ml
same,"Max inhibition%; suppression of pAKT (Meso-Scale Discovery assay), BT-474 cells",[11],1%
same,fold decrease in pHER3 ELISA in HCC827 cells; potency against 2C2,[12],10 fold
same,"pHER3 ELISA in Kato III cells, maximal pHER3 suppression",[12],60%
